The target of this data set is T1, BnaA3.ABF4 (Brassica napus, UniProt X2C209 1-395).
T1 sequence: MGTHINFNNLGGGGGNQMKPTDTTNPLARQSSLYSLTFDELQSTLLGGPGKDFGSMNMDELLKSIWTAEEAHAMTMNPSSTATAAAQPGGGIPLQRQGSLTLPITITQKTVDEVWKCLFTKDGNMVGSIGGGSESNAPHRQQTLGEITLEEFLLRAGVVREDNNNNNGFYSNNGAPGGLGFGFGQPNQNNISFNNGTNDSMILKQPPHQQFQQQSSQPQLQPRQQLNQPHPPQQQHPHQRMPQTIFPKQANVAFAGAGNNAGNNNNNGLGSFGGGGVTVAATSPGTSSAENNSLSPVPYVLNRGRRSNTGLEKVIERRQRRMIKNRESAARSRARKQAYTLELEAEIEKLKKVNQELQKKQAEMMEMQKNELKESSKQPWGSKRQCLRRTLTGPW
Kind of data set: EMSA; not given in the material. The settings on record: protein: recombinant; tags: GST (N-term, pGEX-4T-1); chain copies: 2; label: biotin. (In general: A gel shift assay detects complexes by their altered migration in electrophoresis.)

B1: BnaA9.NF-YA7 promoter ABRE probe (dsDNA)
DNA 1: ATCTGCCCGTAATCTGCTACGTGCAATCTAAACGCTT
DNA 2: AAGCGTTTAGATTGCACGTAGCAGATTACGGGCAGAT
With B1, the binding result is “binds”.

The values above are taken from PMC10920887, “Natural variation in BnaA9.NF-YA7 contributes to drought tolerance in Brassica napus L”.
